Reference: patent US20200261595A1

Target: insulin receptor of isolated rat adipocytes (rat) (UniProt P15127)
Assay: cell-based or functional assay

insulin receptor of isolated rat adipocytes (rat), sequence (P15127 27-1383): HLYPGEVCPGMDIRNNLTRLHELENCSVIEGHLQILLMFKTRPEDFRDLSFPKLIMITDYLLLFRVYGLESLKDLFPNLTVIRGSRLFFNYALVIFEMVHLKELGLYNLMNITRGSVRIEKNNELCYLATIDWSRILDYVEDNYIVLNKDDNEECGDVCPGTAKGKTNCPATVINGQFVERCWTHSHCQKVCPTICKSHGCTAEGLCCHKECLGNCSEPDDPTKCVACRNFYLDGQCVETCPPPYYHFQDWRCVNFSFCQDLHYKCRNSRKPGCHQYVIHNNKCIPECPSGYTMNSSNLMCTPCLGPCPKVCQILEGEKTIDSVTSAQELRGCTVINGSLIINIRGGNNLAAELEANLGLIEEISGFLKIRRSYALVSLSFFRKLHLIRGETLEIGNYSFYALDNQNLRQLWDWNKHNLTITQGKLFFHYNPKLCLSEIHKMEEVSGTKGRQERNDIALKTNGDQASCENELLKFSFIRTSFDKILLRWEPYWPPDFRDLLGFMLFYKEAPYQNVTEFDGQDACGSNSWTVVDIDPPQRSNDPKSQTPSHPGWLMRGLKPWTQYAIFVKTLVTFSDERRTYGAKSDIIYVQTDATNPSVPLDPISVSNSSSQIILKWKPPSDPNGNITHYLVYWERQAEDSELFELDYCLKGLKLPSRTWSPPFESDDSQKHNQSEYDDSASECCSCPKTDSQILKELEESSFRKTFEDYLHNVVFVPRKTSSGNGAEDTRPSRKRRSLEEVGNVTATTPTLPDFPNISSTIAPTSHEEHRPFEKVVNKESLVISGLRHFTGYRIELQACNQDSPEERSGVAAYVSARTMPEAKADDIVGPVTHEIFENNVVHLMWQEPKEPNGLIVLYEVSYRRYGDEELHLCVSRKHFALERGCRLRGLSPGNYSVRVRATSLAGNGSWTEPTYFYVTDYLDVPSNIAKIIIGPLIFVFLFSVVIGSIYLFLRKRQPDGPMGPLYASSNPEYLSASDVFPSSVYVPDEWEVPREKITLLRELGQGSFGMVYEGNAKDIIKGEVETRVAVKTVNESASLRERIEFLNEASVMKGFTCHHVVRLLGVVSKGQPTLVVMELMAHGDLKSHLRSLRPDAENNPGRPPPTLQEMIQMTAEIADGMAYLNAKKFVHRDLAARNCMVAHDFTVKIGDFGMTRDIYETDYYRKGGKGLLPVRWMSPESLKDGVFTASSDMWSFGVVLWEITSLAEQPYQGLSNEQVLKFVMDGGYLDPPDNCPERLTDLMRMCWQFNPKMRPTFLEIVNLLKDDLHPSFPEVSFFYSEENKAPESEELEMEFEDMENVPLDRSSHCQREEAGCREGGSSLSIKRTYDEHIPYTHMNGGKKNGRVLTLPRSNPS

Row | Lipogenesis in rat adipocytes [Potency (%)] Mean Value (% of human insulin) | Substance
1 | 0.87 | A14E, B(-78K^), B(-77P), B(-1)(GQAP)19, B25H, B29R, desB30 human insulin/(227A, 234A, 235K, 297E, 315Q, 384Q, des447 hIgG4-Fc(228-447)) 4-[bis[2-[(2-acetyl)amino]ethyl]amino]-4-oxo-butanoyl conjugate (from UniProt P01861 108-325)
2 | 5.44 | (A14E, A21G, A22(GQEP)19, 98K^, A99P, B25H, B29R, desB30 human insulin)/(226A, 227G, 228P, 234A, 235K, des447 hIgG4-Fc(228-447)) 3,5-bis[(2-acetyl)amino]benzoyl conjugate (from UniProt P01861 109-325)
